From article PMC3115021, “Dynamics of Cdk1 Substrate Specificity during the Cell Cycle” (Molecular Cell, 2011)

B1: SWI6: cell cycle-related transcription factor, tested as Cdk1 substrate (protein, UniProt P09959 1-803, looked up)
Regulatory protein SWI6: MALEEVVRYLGPHNEIPLTLTRDSETGHFLLKHFLPILQQYHDTGNINETNPDSFPTDEERNKLLAHYGIAVNTDDRGELWIELEKCLQLLNMLNLFGLFQDAFEFEEPETDQDEEDPSHSKLPENKTKSENSKDNISSKRINNLQDMSLDSDAHRELGSPLKKLKIDTSVIDAESDSTPNTARGKPNDDINKGPSGDNENNGTDDNDRTAGPIITFTHDLTSDFLSSPLKIMKALPSPVVNDNEQKMKLEAFLQRLLFPEIQEMPTSLNNDSSNRNSEGGSSNQQQQHVSFDSLLQEVNDAFPNTQLNLNIPVDEHGNTPLHWLTSIANLELVKHLVKHGSNRLYGDNMGESCLVKAVKSVNNYDSGTFEALLDYLYPCLILEDSMNRTILHHIIITSGMTGCSAAAKYYLDILMGWIVKKQNRPIQSGTNEKESKPNDKNGERKDSILENLDLKWIIANMLNAQDSNGDTCLNIAARLGNISIVDALLDYGADPFIANKSGLRPVDFGAGTSKLQNTNGGDENSKMVSKGDYDGQKNGKAKKIRSQLLKNPPETTSLINDVQNLLNSISKDYENETVQYNEKLEKLHKELNEQREELANSREQLANVKQLKDEYSLMQEQLTNLKAGIEEEEESFREESKKLGIIADESSGIDWDSSEYDADEPFKVEFLSDFLEDKLQKNYEGDISKLLEAESKEQIMEQIRNQLPAEKIQSMLPPTVLLKARINAYKRNDKHLTNVLDTISTKQSELENKFRRVLSLCLKIDENKVDNMLDGLLQAISSEDPQDIDTDEMQDFLKKHAS
B2: TOS4: putative transcription factor, tested as Cdk1 substrate (protein, UniProt Q06266 1-489, looked up)
Protein TOS4: MSSQFPSSPYRTVDPYSPPNYKQQPNCPSSNYEKAGKTASESIGNFGKGDYPTPFPSSSIGRVSSPVRSNKVDAIPSSPAFPGQLAETSPKFSSKLSSPSRHTRVINAELDPSKISTITVGRNSSQCDVALCKNKFISRVHASITYLPQTNEVKIHCFSMNGLIVTYRKQFDCYQLKDTMNNNNRAYRLVPRFSNEKCVKEIQDEGGFINFTLEEGDTVYMTYYKGIMLDFRQVLLRISLKEKNSSSEPLRFEKKAEFESESETKHMGSIRKHPLIFTDTSMDRPKKILKDSNKISIGSDSGVAERMLNHFLNSKSSPLSSVSSVDHEEQTLRQDSLSSDKNPMTMKKPKLNKRVLPSKPKKSVKENLDELSRRNIDVMHLQHILTNHLAFANVQQTPLFQLQQVNSQISELSRDELRSILSDAKCVGVIYRHGKDAAGKPLDEEYFYDLENDDDYERRNLVSSLKGGRTGLRSCRRTHKQYFWKKPAK
B3: WHI5: repressor of the G1-specific SBF transcription factor, tested as Cdk1 substrate (protein, UniProt Q12416 1-295, looked up)
G1-specific transcriptional …: MSLRTPKRSRTSDEQEQEQEQEQVQNPDTHVNNEHQQRPGPTTLLSTPVRLKNGFGTPSPPSPPGITKSITKSRRRPSTTSLQGIFMSPVNKRRVGITAHGRVYDHNDDGHESESEDDENEEENENQKKYDGHVSMPLLPPTTPKSRRSEVFLSPSPRLRSPPTAARRSTGERPIREISHTLRTRLNYALVKLQNGWTDKTLPELETELAPAVQTPPRRYHNRFPDSADAGTSAHTAFLQALGGHPPREEATAVETLMLLSSPTKKQQHRPVPATSAGEPTDETEPESDTEVETS
B4: XBP1: purified yeast protein tested as Cdk1 substrate (protein, UniProt P40489 1-647, looked up)
Transcriptional repressor XBP1: MKYPAFSINSDTVHLTDNPLDDYQRLYLVSVLDRDSPPASFSAGLNIRKVNYKSSIAAQFTHPNFIISARDAGNGEEAAAQNVLNCFEYQFPNLQTIQSLVHEQTLLSQLASSATPHSALHLHDKNILMGKIILPSRSNKTPVSASPTKQEKKALSTASRENATSSLTKNQQFKLTKMDHNLINDKLINPNNCVIWSHDSGYVFMTGIWRLYQDVMKGLINLPRGDSVSTSQQQFFCKAEFEKILSFCFYNHSSFTSEESSSVLLSSSTSSPPKRRTSTGSTFLDANASSSSTSSTQANNYIDFHWNNIKPELRDLICQSYKDFLINELGPDQIDLPNLNPANFTKRIRGGYIKIQGTWLPMEISRLLCLRFCFPIRYFLVPIFGPDFPKDCESWYLAHQNVTFASSTTGAGAATAATAAANTSTNFTSTAVARPRQKPRPRPRQRSTSMSHSKAQKLVIEDALPSFDSFVENLGLSSNDKNFIKKNSKRQKSSTYTSQTSSPIGPRDPTVQILSNLASFYNTHGHRYSYPGNIYIPQQRYSLPPPNQLSSPQRQLNYTYDHIHPVPSQYQSPRHYNVPSSPIAPAPPTFPQPYGDDHYHFLKYASEVYKQQNQRPAHNTNTNMDTSFSPRANNSLNNFKFKTNSKQ
B5: YHP1: purified yeast protein tested as Cdk1 substrate (protein, UniProt Q04116 1-353, looked up)
Homeobox protein YHP1: MESRNTVLPSLPNIITGTSNSPFQLHTLPNTNFPSDDQGDIRLPPLAASAHIVRPVVNIYKSPCDEERPKRKSPQAVDFLSQRVTTSMTPLSKPKKLSSHSPFTPTVRVCSKEQPPQSMHSYKKVNILTPLSAAKAVLTPTTRKEKKRSFAFITHSQETFPKKEPKIDNARLARRKRRRTSSYELGILQTAFDECPTPNKAKRIELSEQCNMSEKSVQIWFQNKRQAAKKHKNSGNTSHCKVHSNDSMSMISYSDAALEITSTPTSTKEAITAELLKTSPANTSSIFEDHHITPCKPGGQLKFHRKSVLVKRTLSNTGHSEIIKSPKGKENRLKFNAYERKPLGEVDLNSFKN
B6: CDC6: replication factor and pre-RC component, tested as Cdk1 substrate (protein, UniProt P09119 1-513, looked up)
Cell division control protein …: MSAIPITPTKRIRRNLFDDAPATPPRPLKRKKLQFTDVTPESSPEKLQFGSQSIFLRTKALLQKSSELVNLNSSDGALPARTAEYEQVMNFLAKAISEHRSDSLYITGPPGTGKTAQLDMIIRQKFQSLPLSLSTPRSKDVLRHTNPNLQNLSWFELPDGRLESVAVTSINCISLGEPSSIFQKIFDSFQDLNGPTLQIKNMQHLQKFLEPYHKKTTFVVVLDEMDRLLHANTSETQSVRTILELFLLAKLPTVSFVLIGMANSLDMKDRFLSRLNLDRGLLPQTIVFQPYTAEQMYEIVIQKMSSLPTIIFQPMAIKFAAKKCAGNTGDLRKLFDVLRGSIEIYELEKRFLLSPTRGSLNSAQVPLTPTTSPVKKSYPEPQGKIGLNYIAKVFSKFVNNNSTRTRIAKLNIQQKLILCTIIQSLKLNSDATIDESFDHYIKAITKTDTLAPLQRNEFLEICTILETCGLVSIKKTKCKGKTKRFVDKIDVDLDMREFYDEMTKISILKPFLH

These molecules were tested against T1, Clb3-Cdk1 (Saccharomyces cerevisiae, UniProt P00546+P24870) (assay: Quantitative phosphorylation assay of T33-Sic1ΔC constructs and recombinant substrates). Conditions: Table S2; purified protein substrate; relative values, not divided by [S].
T1 construct: We purified the four cyclin-Cdk1 complexes from yeast; made in house; host or cells: S. cerevisiae strain DOM0957 (gal-CLB3-TAP, sic1 deleted); Cks1 from bacteria
Assay type: biochemical

T1 sequence (P00546 2-298 limits assumed): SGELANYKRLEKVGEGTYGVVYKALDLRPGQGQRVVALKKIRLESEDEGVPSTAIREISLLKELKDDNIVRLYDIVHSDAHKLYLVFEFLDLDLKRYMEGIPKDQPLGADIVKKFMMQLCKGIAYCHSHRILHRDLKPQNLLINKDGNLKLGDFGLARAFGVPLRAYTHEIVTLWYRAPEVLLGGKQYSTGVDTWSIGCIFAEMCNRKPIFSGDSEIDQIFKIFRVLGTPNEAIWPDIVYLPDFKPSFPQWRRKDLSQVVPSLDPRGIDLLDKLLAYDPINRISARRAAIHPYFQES
T1 sequence (P24870 whole entry partner): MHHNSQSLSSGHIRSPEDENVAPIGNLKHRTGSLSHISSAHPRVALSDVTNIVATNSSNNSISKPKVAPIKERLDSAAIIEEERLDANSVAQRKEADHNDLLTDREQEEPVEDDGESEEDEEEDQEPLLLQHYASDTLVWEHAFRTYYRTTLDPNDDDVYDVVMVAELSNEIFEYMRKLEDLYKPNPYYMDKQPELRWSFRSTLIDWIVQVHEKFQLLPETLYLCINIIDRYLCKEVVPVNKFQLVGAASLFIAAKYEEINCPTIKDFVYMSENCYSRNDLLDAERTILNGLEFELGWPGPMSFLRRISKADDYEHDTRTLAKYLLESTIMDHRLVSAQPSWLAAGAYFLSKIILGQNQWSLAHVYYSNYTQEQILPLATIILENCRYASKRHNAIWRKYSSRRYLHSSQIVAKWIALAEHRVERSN
T1 sequence (P20486 whole entry partner): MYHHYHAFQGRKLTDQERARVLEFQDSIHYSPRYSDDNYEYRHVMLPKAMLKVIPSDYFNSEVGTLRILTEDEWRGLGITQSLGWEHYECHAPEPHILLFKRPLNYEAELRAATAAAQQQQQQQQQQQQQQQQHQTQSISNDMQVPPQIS

Molecule	kcat/KM, Clb3
B1	0.105 relative units
B2	8.484 relative units
B3	0.033 relative units
B4	0.065 relative units
B5	0.066 relative units
B6	2.268 relative units

The molecules below were run against T2, Clb2-Cdk1 (Saccharomyces cerevisiae, UniProt P00546+P24869) in the same assay as above. Conditions: Table S2; purified protein substrate; relative values, not divided by [S].
T2 construct: We purified the four cyclin-Cdk1 complexes from yeast; made in house; host or cells: S. cerevisiae strain DOM0077 (gal-CLB2-TAP, sic1 deleted); Cks1 from bacteria
Assay type: biochemical

T2 sequence (P00546 2-298 limits assumed): as the sequence (P00546 2-298 limits assumed) above
T2 sequence (P24869 2-491 partner limits assumed): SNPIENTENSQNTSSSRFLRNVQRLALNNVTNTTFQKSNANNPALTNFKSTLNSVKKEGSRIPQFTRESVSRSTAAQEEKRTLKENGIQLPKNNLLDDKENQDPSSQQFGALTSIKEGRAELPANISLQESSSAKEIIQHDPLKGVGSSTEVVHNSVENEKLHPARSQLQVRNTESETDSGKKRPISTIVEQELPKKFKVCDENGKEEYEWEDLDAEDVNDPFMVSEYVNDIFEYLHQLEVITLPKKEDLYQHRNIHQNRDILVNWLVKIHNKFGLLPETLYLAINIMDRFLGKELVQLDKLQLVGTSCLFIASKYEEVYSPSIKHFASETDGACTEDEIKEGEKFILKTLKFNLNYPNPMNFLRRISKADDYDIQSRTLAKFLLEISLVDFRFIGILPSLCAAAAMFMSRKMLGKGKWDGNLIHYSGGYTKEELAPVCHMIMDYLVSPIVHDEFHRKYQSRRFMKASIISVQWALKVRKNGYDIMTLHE
T2 sequence (P20486 whole entry partner): as the sequence (P20486 whole entry partner) above

Molecule	kcat/KM, Clb2
B1	0.412 relative units
B2	2.373 relative units
B3	0.046 relative units
B4	0.103 relative units
B5	0.385 relative units
B6	0.078 relative units

These molecules were tested against T3, Cln2-Cdk1 (Saccharomyces cerevisiae, UniProt P00546+P20438) in the same assay as above. Conditions: Table S2; purified protein substrate; relative values, not divided by [S].
T3 construct: We purified the four cyclin-Cdk1 complexes from yeast; made in house; host or cells: S. cerevisiae strain DMY305 (galactose-induced); Cks1 from bacteria
Assay type: biochemical

T3 sequence (P00546 2-298 limits assumed): as the sequence (P00546 2-298 limits assumed) above
T3 sequence (P20438 whole entry partner): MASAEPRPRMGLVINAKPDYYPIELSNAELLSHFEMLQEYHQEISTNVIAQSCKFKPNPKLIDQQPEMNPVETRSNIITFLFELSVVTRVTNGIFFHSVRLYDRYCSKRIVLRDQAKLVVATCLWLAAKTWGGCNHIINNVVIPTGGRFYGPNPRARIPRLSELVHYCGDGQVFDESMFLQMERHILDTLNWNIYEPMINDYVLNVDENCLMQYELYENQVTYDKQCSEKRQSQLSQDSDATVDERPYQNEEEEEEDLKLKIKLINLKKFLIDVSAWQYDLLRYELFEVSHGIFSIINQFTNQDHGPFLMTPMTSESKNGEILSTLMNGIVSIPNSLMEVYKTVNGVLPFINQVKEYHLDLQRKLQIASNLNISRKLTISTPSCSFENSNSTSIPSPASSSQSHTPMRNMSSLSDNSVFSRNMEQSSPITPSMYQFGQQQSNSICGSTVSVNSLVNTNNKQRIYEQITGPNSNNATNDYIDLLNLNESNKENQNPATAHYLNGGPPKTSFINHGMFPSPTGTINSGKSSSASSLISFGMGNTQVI
T3 sequence (P20486 whole entry partner): as the sequence (P20486 whole entry partner) above

Molecule	kcat/KM, Cln2
B1	0.004 relative units
B2	0.708 relative units
B3	0.283 relative units
B4	0.200 relative units
B5	0.524 relative units
B6	0.084 relative units

What follows are molecules tested against T4, Clb5-Cdk1 (Saccharomyces cerevisiae, UniProt P00546+P30283) in the same assay as above. Conditions: Table S2; purified protein substrate; relative values, not divided by [S].
T4 construct: We purified the four cyclin-Cdk1 complexes from yeast; made in house; host or cells: S. cerevisiae strain DOM0076 (gal-CLB5-TAP, sic1 deleted); Cks1 from bacteria
Assay type: biochemical

T4 sequence (P00546 2-298 limits assumed): as the sequence (P00546 2-298 limits assumed) above
T4 sequence (P30283 whole entry partner): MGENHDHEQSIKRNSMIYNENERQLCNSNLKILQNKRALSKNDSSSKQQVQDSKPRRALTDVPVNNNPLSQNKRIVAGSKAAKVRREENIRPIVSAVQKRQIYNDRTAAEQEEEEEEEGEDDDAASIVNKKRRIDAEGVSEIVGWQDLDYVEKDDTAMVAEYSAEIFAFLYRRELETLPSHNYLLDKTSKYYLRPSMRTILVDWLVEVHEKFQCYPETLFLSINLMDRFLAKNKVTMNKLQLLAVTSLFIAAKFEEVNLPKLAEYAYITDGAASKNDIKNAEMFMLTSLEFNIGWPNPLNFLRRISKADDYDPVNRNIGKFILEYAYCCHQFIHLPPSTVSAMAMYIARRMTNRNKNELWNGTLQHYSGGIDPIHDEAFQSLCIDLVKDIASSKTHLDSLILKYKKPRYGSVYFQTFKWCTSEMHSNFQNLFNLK
T4 sequence (P20486 whole entry partner): as the sequence (P20486 whole entry partner) above

Molecule	kcat/KM, Clb5
B1	0.118 relative units
B2	0.502 relative units
B3	0.016 relative units
B4	0.020 relative units
B5	0.020 relative units
B6	2.898 relative units

These molecules were tested against T5, Clb3hpm-Cdk1 (Saccharomyces cerevisiae, UniProt P00546+P24870) in the same assay as above. Conditions: Table S2; purified protein substrate; relative values, not divided by [S].
T5 construct: made in house; host or cells: S. cerevisiae strain MK0168 (gal-CLB3hpm-TAP, sic1 deleted); Cks1 from bacteria
Assay type: biochemical
Summary of the method: (§1)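 Yeast cyclin-Cdk1 complexes (1–10 nM, TAP-purified) phosphorylated 6His-T33-Sic1ΔC (other S/T-P sites mutated to Ala-Ala) or recombinant substrates at 0.5–2 μM, below KM, with 32P-γ-ATP. Initial velocities (≤10% turnover) from two or more time points, SDS-PAGE stopped; relative kcat/KM from v0 ratios.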

Molecule	kcat/KM, Clb3hpm
B1	0.075 relative units
B2	2.397 relative units
B3	0.006 relative units
B4	0.013 relative units
B5	0.009 relative units
B6	0.350 relative units

What follows are molecules tested against T6, Clb2hpm-Cdk1 (Saccharomyces cerevisiae, UniProt P00546) in the same assay as above. Conditions: Table S2; purified protein substrate; relative values, not divided by [S].
T6 construct: made in house; host or cells: S. cerevisiae strain DOM0964 (gal-CLB2hpm-TAP, sic1 deleted); Cks1 from bacteria
Assay type: biochemical
Summary of the method: as §1

T6 sequence (P00546 2-298 limits assumed): as the sequence (P00546 2-298 limits assumed) above

Molecule	kcat/KM, Clb2hpm
B1	0.481 relative units
B2	2.136 relative units
B3	0.027 relative units
B4	0.084 relative units
B5	0.046 relative units
B6	1.688 relative units

Each molecule was assayed against T7, Clb5hpm-Cdk1 (Saccharomyces cerevisiae, UniProt P00546) in the same assay as above. Conditions: Table S2; purified protein substrate; relative values, not divided by [S].
T7 construct: made in house; host or cells: S. cerevisiae strain DOM0963 (gal-CLB5hpm-TAP, sic1 deleted); Cks1 from bacteria
Assay type: biochemical
Summary of the method: as §1

T7 sequence (P00546 2-298 limits assumed): as above

Molecule	kcat/KM, Clb5hpm
B1	0.058 relative units
B2	0.593 relative units
B3	0.001 relative units
B4	0.007 relative units
B5	0.002 relative units
B6	0.138 relative units
